Assay results published in publication PMC10615782.

Biological target: Chikungunya virus-like particles (strain 37997) (chikungunya virus) (UniProt Q8JUX5)
Assay: BLI

Monovalent mouse MXRA8 cleaved from the Fc fusion (from UniProt Q9DBV4 22-336) (domain or fragment)
Kd: 0.068 µM
